Experiments:
Test in all cases: two-hybrid library CCNG1;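 also: natural log of median RNA to DNA barcode read ratio; higher means stronger binding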
4H754-bH = biological target: T1, 4H754-bH
T1 chain: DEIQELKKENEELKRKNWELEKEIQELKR

4H780-bH = biological target: T2, 4H780-bH
T2 chain: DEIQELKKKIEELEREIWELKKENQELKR

4H918-bH = biological target: T3, 4H918-bH
T3 chain: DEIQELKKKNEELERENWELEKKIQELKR

4H683-bH = biological target: T4, 4H683-bH
T4 chain: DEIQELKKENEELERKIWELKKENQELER

4H575-bH = biological target: T5, 4H575-bH
T5 chain: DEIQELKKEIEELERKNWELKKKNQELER

4H855-bH = biological target: T6, 4H855-bH
T6 chain: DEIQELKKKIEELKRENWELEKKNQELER

4H968-bH = biological target: T7, 4H968-bH
T7 chain: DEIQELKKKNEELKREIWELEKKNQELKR

4H953-bH = biological target: T8, 4H953-bH
T8 chain: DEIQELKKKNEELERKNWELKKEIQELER

4H797-bH = biological target: T9, 4H797-bH
T9 chain: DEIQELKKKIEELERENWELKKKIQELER

4H906-bA = biological target: T10, 4H906-bA
T10 chain: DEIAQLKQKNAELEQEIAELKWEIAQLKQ

4H626-bA = biological target: T11, 4H626-bA
T11 chain: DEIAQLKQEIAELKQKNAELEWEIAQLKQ

4H953-bN = biological target: T12, 4H953-bN
T12 chain: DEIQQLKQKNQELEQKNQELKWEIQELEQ

4H855-bN = biological target: T13, 4H855-bN
T13 chain: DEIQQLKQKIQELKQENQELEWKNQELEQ

4H968-bN = biological target: T14, 4H968-bN
T14 chain: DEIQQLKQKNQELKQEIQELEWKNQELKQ

4H754-bN = biological target: T15, 4H754-bN
T15 chain: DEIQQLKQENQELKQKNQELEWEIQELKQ

4H918-bN = biological target: T16, 4H918-bN
T16 chain: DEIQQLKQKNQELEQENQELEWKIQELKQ

4H683-bN = biological target: T17, 4H683-bN
T17 chain: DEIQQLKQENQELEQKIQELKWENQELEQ

4H780-bN = biological target: T18, 4H780-bN
T18 chain: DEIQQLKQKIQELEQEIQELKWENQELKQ

4H797-bN = biological target: T19, 4H797-bN
T19 chain: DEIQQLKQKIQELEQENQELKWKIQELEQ

4H626-bH = biological target: T20, 4H626-bH
T20 chain: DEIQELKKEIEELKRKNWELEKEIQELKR

4H906-bH = biological target: T21, 4H906-bH
T21 chain: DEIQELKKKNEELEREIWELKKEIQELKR

4H619-bH = biological target: T22, 4H619-bH
T22 chain: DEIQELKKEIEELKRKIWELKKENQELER

4H850-bH = biological target: T23, 4H850-bH
T23 chain: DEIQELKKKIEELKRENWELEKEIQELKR

4H584-bH = biological target: T24, 4H584-bH
T24 chain: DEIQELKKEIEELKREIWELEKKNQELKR

4H570-bH = biological target: T25, 4H570-bH
T25 chain: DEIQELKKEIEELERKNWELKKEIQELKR

B1: 4H575-bH (peptide)
chain: DEIQELKKEIEELERKNWELKKKNQELER
B1 was tested, and the interaction score (4H754-bH) was -0.631, the interaction score (4H780-bH) was -0.754 and the interaction score (4H918-bH) was -0.438. For the same binder, the interaction score (4H683-bH) was -0.243, the interaction score (4H575-bH) was -0.14 and the interaction score (4H855-bH) was 1.37. It also gave an interaction score (4H968-bH) of -1.01, an interaction score (4H953-bH) of -0.118 and an interaction score (4H797-bH) of -0.434.

B2: 4H626-bA (peptide)
chain: DEIAQLKQEIAELKQKNAELEWEIAQLKQ
B2 was tested, and the interaction score (4H906-bA) was -1.23 and the interaction score (4H626-bA) was 0.86.

B3: 4H683-bN (peptide)
chain: DEIQQLKQENQELEQKIQELKWENQELEQ
B3 gave an interaction score (4H953-bN) of -0.218, an interaction score (4H855-bN) of -0.411 and an interaction score (4H968-bN) of 1.51. It also gave an interaction score (4H754-bN) of -1.46, an interaction score (4H918-bN) of -0.318 and an interaction score (4H683-bN) of -0.0866. It also gave an interaction score (4H780-bN) of -0.606 and an interaction score (4H797-bN) of 0.0127.

B4: 4H626-bH (peptide)
chain: DEIQELKKEIEELKRKNWELEKEIQELKR
In the case of B4, the interaction score (4H626-bH) is reported as 0.932 and the interaction score (4H906-bH) is reported as -0.349.

B5: 4H584-bH (peptide)
chain: DEIQELKKEIEELKREIWELEKKNQELKR
B5 showed an interaction score (4H619-bH) of 1.2, an interaction score (4H850-bH) of 0.297 and an interaction score (4H906-bH) of 0.202. For the same binder, the interaction score (4H584-bH) was 1.18.

B6: 4H570-bH (peptide)
chain: DEIQELKKEIEELERKNWELKKEIQELKR
For B6, the interaction score (4H619-bH) was -0.75, the interaction score (4H570-bH) was 1.19 and the interaction score (4H850-bH) was 1.01. It also gave an interaction score (4H906-bH) of 0.224 and an interaction score (4H584-bH) of -1.16.
